For experiment [1], the target named is T1, Proteasome subunit alpha type (Homo sapiens).
T1 construct: also called PSMA6
Kind of experiment: anti-FLAG co-IP LC-MS, exp 3, +Dox.

The target of experiment [2] is T2, Immunoglobulin kappa variable 2-40 (Homo sapiens).
T2 construct: also called IGKV2-40
Kind of experiment: anti-FLAG co-IP LC-MS, exp 3, +Dox.

Experiment [3] addresses ATP-dependent RNA helicase DDX3X (Homo sapiens, UniProt O00571 2-662). Kind of experiment: anti-FLAG co-IP LC-MS, exp 3, +Dox.
Experiment [4] has as its target T3, DNA-dependent protein kinase catalytic subunit (Homo sapiens, UniProt P78527 1-4128).
T3 construct: also called PRKDC
Description: anti-FLAG co-IP LC-MS, exp 3, +Dox.

Experiment [5] deals with T4, Nuclease-sensitive element-binding protein 1 (Fragment) (Homo sapiens, UniProt P67809 2-324).
T4 construct: also called YBX1
Description: anti-FLAG co-IP LC-MS, exp 3, +Dox.

Experiment [6] deals with T5, Heterogeneous nuclear ribonucleoprotein M (Homo sapiens, UniProt P52272 2-730).
T5 construct: also called HNRNPM
T5 sequence (looked up): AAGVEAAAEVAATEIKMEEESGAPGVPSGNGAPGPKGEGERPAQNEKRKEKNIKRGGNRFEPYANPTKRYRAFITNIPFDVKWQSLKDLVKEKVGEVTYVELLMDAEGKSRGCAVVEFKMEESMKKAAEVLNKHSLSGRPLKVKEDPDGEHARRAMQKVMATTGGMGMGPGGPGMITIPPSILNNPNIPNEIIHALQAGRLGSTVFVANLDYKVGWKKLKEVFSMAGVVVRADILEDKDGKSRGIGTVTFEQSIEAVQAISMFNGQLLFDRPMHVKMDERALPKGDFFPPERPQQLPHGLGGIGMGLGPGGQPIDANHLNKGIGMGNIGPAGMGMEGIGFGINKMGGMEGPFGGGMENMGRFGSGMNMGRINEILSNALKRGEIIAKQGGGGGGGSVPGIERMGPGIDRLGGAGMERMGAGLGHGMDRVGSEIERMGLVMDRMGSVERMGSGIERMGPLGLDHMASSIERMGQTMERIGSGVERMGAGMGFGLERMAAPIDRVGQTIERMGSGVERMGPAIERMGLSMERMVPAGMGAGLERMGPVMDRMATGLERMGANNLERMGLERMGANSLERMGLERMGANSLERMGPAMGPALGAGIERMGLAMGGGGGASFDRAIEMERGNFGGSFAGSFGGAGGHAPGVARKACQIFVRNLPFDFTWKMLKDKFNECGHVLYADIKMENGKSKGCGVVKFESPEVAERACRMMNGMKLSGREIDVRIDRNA
Description: anti-FLAG co-IP LC-MS, exp 3, +Dox.

The target of experiment [7] is T6, Cyclin-dependent kinase 4 (Homo sapiens, UniProt P11802 2-303).
T6 construct: also called CDK4
T6 sequence (P11802 2-303 limits assumed): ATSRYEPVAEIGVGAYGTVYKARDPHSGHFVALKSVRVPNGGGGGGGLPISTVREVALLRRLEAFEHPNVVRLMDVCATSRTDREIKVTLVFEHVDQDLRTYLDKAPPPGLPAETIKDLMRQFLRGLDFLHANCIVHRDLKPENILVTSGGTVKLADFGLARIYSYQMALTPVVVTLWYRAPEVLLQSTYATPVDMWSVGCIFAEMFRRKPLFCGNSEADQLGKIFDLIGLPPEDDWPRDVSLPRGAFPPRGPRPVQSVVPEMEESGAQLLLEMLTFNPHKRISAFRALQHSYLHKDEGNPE
Description: anti-FLAG co-IP LC-MS, exp 3, +Dox.

The target in experiment [8] is T7, Heterogeneous nuclear ribonucleoprotein U (Homo sapiens, UniProt Q00839 2-825).
T7 construct: also called HNRNPU; HNRPU
Description: anti-FLAG co-IP LC-MS, exp 3, +Dox.

In experiment [9] the target is T3, DNA-dependent protein kinase catalytic …. Description: anti-FLAG co-IP LC-MS, exp 4, +Dox +IFNG.
The target in experiment [10] is T8, Uncharacterized protein (Fragment) (Homo sapiens).
T8 construct: also called NA (Homology to TAP2)
Kind of experiment: anti-FLAG co-IP LC-MS, exp 4, +Dox +IFNG.

The next experiment addresses T9, 3×MYC-STAT1-S727E (UniProt P42224 1-750).
T9 construct: In vitro translated in rabbit reticulocyte lysate; also called phospho-mimic STAT1-S727E; not shown: 3×MYC tag
T9 sequence (looked up): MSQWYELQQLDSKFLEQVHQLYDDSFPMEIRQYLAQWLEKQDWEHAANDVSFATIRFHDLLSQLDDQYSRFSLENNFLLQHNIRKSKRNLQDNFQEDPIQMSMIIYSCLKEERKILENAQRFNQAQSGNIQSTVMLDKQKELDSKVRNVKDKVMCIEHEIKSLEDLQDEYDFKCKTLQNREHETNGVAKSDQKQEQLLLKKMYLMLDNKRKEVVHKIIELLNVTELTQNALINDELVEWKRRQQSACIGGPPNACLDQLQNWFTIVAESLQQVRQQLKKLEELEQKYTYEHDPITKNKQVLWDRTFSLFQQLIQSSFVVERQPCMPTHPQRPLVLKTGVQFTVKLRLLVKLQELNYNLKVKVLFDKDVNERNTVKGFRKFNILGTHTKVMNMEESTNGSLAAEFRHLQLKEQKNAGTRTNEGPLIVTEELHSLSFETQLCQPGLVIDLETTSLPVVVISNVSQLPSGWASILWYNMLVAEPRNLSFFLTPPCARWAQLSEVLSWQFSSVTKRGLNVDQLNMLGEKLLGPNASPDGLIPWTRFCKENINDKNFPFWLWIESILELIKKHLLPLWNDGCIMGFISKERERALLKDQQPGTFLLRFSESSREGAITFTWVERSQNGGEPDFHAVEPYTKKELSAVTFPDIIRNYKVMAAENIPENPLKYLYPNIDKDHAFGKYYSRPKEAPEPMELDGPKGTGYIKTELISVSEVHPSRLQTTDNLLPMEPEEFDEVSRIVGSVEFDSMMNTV
Kind of experiment: anti-FLAG IP of in vitro translated proteins, without JAK1 treatment, western.

T3 sequence (P78527 whole entry): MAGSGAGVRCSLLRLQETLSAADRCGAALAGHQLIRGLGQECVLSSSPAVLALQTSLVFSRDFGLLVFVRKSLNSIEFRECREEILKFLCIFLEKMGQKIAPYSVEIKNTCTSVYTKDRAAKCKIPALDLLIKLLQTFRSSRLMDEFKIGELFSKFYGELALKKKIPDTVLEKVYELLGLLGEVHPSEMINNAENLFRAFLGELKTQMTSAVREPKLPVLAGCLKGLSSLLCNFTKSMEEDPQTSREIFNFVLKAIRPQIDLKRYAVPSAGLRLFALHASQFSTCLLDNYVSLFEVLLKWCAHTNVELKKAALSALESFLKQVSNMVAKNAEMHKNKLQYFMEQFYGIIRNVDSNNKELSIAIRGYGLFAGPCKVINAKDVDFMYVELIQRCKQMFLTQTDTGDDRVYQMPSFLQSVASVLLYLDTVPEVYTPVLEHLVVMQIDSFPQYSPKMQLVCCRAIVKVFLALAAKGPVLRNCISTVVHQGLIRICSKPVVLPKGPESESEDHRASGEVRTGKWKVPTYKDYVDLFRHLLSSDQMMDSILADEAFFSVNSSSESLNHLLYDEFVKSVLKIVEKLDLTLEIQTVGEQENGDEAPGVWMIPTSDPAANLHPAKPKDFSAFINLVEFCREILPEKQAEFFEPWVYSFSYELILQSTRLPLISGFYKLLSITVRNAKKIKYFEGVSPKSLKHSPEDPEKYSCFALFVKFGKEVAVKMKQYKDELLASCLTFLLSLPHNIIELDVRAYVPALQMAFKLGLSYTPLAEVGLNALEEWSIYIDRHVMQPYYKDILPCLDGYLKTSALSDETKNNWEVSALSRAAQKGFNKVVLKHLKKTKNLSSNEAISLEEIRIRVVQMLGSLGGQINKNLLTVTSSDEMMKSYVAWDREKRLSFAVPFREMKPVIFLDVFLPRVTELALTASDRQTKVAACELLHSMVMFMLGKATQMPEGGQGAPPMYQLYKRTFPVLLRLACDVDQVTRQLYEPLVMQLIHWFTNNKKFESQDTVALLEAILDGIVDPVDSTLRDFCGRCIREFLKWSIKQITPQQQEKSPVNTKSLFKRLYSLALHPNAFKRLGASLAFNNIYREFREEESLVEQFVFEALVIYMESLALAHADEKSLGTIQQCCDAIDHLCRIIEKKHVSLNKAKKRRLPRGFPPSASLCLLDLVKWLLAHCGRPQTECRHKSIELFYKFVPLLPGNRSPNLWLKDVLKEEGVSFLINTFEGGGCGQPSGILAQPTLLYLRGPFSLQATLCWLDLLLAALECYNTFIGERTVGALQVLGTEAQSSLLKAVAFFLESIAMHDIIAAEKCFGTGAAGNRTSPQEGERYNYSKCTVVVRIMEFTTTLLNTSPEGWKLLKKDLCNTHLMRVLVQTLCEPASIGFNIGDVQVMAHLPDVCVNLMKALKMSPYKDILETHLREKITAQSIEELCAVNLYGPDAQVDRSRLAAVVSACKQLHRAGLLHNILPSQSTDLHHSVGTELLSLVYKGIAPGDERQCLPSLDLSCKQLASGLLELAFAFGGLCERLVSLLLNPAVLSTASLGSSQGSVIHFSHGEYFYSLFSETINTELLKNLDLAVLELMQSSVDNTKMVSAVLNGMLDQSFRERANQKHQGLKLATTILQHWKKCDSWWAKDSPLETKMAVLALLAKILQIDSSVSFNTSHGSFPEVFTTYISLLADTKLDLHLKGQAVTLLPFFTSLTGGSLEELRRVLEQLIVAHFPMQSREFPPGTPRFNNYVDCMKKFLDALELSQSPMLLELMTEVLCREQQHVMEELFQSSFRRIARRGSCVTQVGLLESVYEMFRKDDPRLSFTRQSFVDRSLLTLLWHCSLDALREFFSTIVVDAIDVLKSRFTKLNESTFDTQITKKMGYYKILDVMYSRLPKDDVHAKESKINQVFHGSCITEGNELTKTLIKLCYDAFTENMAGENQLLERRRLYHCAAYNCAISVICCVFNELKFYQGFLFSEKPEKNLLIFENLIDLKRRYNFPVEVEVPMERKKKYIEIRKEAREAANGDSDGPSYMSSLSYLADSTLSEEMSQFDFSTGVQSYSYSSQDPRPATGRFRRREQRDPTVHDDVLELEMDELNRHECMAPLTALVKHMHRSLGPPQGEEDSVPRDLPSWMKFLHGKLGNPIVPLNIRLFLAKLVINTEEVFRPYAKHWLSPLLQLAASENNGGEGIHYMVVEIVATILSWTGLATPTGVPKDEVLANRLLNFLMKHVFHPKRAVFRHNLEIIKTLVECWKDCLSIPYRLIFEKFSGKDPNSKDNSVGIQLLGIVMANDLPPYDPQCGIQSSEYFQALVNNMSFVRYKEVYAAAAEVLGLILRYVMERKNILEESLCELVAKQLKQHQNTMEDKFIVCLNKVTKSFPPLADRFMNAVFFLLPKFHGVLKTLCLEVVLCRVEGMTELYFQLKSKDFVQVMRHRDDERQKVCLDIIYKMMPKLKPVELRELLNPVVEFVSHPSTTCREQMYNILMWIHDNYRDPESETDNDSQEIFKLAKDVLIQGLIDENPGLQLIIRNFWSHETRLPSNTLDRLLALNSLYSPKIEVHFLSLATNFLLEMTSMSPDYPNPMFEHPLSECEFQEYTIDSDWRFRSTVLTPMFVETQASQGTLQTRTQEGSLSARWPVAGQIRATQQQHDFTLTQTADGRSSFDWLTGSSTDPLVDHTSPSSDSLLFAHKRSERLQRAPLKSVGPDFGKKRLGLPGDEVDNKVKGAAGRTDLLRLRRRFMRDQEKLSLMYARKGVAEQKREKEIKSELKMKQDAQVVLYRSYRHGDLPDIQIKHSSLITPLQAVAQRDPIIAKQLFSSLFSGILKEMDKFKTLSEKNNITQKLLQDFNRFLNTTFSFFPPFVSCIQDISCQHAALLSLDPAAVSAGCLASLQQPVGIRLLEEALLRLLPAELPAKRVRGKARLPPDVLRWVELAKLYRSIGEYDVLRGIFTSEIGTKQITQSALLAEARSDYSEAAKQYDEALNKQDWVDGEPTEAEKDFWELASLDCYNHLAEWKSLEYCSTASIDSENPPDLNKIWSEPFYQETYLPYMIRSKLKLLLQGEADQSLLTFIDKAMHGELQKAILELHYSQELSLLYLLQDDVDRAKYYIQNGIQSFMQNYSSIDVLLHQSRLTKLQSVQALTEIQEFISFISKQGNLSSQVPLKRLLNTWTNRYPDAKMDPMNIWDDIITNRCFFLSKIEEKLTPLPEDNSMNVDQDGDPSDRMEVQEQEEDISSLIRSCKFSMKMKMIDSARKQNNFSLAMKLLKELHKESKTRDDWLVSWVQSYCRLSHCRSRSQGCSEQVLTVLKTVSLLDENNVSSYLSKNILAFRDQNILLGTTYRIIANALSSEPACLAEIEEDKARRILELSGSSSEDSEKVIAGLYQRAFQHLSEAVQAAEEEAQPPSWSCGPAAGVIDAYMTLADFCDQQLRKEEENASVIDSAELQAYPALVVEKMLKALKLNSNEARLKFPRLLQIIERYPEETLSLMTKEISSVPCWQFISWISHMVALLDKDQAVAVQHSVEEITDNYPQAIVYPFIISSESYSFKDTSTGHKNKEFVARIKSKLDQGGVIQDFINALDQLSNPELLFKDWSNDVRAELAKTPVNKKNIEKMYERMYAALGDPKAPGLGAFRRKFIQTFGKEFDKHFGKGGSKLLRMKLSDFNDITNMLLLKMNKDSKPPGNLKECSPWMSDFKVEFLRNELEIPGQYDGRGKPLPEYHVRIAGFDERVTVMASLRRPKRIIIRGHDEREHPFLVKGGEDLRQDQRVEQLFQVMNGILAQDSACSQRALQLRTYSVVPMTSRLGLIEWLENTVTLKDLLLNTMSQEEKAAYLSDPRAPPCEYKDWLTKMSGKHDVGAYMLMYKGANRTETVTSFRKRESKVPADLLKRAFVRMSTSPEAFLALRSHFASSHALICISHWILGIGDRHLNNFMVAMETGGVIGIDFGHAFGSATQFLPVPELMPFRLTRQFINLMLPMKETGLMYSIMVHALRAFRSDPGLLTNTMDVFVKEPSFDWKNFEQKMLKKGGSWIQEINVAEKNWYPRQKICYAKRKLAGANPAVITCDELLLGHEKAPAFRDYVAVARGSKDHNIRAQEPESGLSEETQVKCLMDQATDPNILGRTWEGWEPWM
ATP-dependent RNA helicase DDX3X, sequence (O00571 2-662 limits assumed): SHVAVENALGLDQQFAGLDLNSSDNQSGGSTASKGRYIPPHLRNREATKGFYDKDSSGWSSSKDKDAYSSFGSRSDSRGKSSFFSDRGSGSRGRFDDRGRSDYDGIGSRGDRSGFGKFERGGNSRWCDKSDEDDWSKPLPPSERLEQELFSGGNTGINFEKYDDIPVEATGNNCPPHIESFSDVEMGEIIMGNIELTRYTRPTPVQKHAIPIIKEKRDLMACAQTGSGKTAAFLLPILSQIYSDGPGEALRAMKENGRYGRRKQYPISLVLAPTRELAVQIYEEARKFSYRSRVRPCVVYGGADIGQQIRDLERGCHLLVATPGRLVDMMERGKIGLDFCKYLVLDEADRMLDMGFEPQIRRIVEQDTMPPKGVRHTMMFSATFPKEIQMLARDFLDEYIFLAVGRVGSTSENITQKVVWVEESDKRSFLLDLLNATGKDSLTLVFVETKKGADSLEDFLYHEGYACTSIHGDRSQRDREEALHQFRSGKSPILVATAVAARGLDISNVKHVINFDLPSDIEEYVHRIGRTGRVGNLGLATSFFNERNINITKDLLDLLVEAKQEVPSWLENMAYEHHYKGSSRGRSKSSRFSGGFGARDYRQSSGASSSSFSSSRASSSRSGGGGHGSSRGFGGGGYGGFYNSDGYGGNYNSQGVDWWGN
Description for 3×MYC-STAT1-S727E: To phosphorylate the 3×MYC-STAT1 and 3×MYC-STAT1-S727E proteins at Y701, 20 μL of the TnT reaction was mixed with 8 μL of 5× Kinase Buffer A (ThermoFisher, Cat #PV3189), 4 uL 10 mM ATP (ThermoFisher, Cat #PV3227), 0.4 ug recombinant JAK1 kinase (ThermoFisher, Cat #PV4774), and then nuclease-free ddH2O to a final volume of 40 μL and incubated for 1 hour at 30° C. […] For IPs, the in vitro translated proteins were mixed and incubated for 15 minutes in a 37° C. water bath. […] (F3165) and incubated for 3 hours at 4° C. with gentle rotation. After immunoprecipitation of FLAG-tagged constructs, each sample was washed 3 times with 1 mL of ice-cold in vitro IP buffer in a 4° C. room. Then the immunoprecipitated proteins were eluted from the beads by incubation with 30 uL elution buffer (2×NuPage LDS Sample Buffer diluted with IP buffer) for 10 minutes at 70° C. at 1000 rpm.

B1: i3XFLAG-NLS-CTDaa154-424 (other)
chain: MDYKDHDGDYKDHDIDYKDDDDKPPKRMRREPKKKRKVGRAPAQAGGLCSAAPGGGHPAPSWVAFAHTGAWGTGLPAPHVPCAPGALPQGAFVSQAARAAPALQPSQAAPAEGISQPAPARGDFAYAAPAPPDGALSHPQAPRWPPHPGKSREDRDPQRDGLPGPCAVAQPGPAQAGPQGQGVLAPPTSQGSPWWGWGRGPQVAGAAWEPQAGAAPPPQPAPPDASASARQGQMQGIPAPSQALQEPAPWSALPCGLLLDELLASPEFLQQAQPLLETEAPGELEASEEAASLEAPLSEEEYRALLEEL
notes: Doxycycline-induced in MB135 cells for co-IP; also called longCTD; iDUX4-CTD
As to B1, the PSMs in experiment [1] is 1 PSMs; in [2] it was 2 PSMs; in experiment [3], 29 PSMs; in experiment [4], 3 PSMs; in experiment [5], 5 PSMs; in experiment [6] it was 9 PSMs. Besides, the PSMs in [7] stood at 1 PSMs; in experiment [8] it was 4 PSMs; in experiment [9], 2 PSMs; in experiment [10], 1 PSMs. The binding result with 3×MYC-STAT1-S727E was “no binding”.

The values above are taken from US20250339531A1 (FRED HUTCHINSON CANCER CENTER, published 2025).
